Reference: the nanobody polyreactivity screen of Harvey et al. (2022)

Experiment: yeast display, Sf9 membrane polyspecificity reagent, FACS + sequencing; frameworks hold sequencing errors
Procedure, shortened: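 Polyreactivity labels are assigned by the sorting gate from which each nanobody was recovered. The gates were low and high (top ~1%), set on anti-HA fluorescence for expression and streptavidin fluorescence for reagent binding. Before sorting, galactose-induced (36–48 hours) yeast display cells were stained for 1 hour at 4 °C with 10% biotinylated, detergent-solubilized Sf9 membrane reagent.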

Sequence | polyreactivity (PSR sort gate)
QVQLVESGGGLVQAGGSLRLTCAASGSIFWGYALGWYRQAPGKERELVATIRNRGGSTYYADSVKGRFTISRDNAKNTVYLQMNSLKPEDTAVYYCAADEGGFWWTYPYDSWGQGTQVTVSS | low polyreactivity
QVQLVESGGGLVQAGGSLRLTCAASGSIFYAYAMGWYRQAPGKERELVAAISGRGGSTYYADSVTGRFTISRDNAKKTVYFQMNSLKPEDTAVYYCAAERRTFYGLGVHYWGQVTQVTVSS | high polyreactivity
QVQLVESGGGLVQAGGSLRLTCAASGSIFYRNAMGLYRQAPGKEMELVADISWSGSSTYADSVKGLFTISRDNAKYTVYLHMNTLKPEDTAVYYCAAGGHYYSSPGYNYWGQGTQVTVSS | high polyreactivity
QVQLVESGGGLVQAGGSLRLTCAASGSIFYYNAKGWYRQAPAKERELVATITQTGGSTYYADSVKARFTISRDNAKNTVYLQMNSLKPEDTAVYYCASDYFPYEYDYWGQGTQVTVSS | low polyreactivity
QVQLVESGGGLVQAGGSLRLTCAASGSIVQVYPMVWYRQEPGKEREFVAAISYSGGGTYYADSVKGRFTISRDIAKNTVYLQMNILKPEDTAVYYCAADVSAWEEDIWRQGTQVTVSS | low polyreactivity
QVQLVESGGGLVQAGGSLRLTCAASGSIYGVYAMGWSIQGPGKEREWVAVISWNGGRTYYADSVKGRFTISRDNAKNTVYLQMNSLKPEDTAVYYCAADTSYRYRDYHVDYWGQGTQVTVSS | high polyreactivity
QVQLVESGGGLVQAGGSLRLTCAASGSTFGWYTKGWYRQAPGKERELVAAISSGGSTYYADSVKGRFTISRDNAKNTVYLQMNSLKPEDTAVYYCNAKVPSSYSYYSYYEYDYWGQGTQVTVSS | low polyreactivity
QVQLVESGGGLVQAGGSLRLTCAASGSTFSKNGMGWYRQAPGKEREFVAAISGSGGSTYYADSVRGRFTISRDNAKNTVYLQMNSLKPEDTAVYYCAARRVWYYISAYGYWGQGTQVTVSS | high polyreactivity
QVQLVESGGGLVQAGGSLRLTCAASGSTFSPYAMGWYRQATGKERELVAAISASGGGTYYADSVKGRFTISRDYAKNTVYLQMNRLIPVDTAVYYCARDYGWDISKGRYGYWGQGTQVTVSS | low polyreactivity
QVQLVESGGGLVQAGGSLRLTCAASGSTFTRYAMGWYRQAPGKERELVATIIFSGDRTYYADSVKGRFTISRDNAKNTVYLEMNSLKPEDTAVSYCNKYRYQWPYRRFDYWGQGTQVTVSS | high polyreactivity
QVQLVESGGGLVQAGGSLRLTCAASGSTFVRYAMGWYRQAPGKERELVATIRRVGSTNYADSVKGRFTISRDNAKNTVYLQMNSLKPEDTEVYYCAARSLRYGRGMYYWGQGTQVTVSS | high polyreactivity
QVQLVESGGGLVQAGGSLRLTCAASGSTFVRYVMGWYRQAPGKERELVAAISRRGGSTYYADSVKGRFTISRDNANNTVYLQMNSLKPEDTAVYYCARTVGYRTLLESDSWGQGTQVTVSS | high polyreactivity
QVQLVESGGGLVQAGGSLRLTCAASGSTFYSNAMGWYRQAPGKERYLVAAITSRGDRTYYADSVKGRFTISRDNAKNTVYFQLNSLNPEDTAVYSCAAEQSWQGYAYYYWGQGTQVTVSS | high polyreactivity
QVQLVESGGGLVQAGGSLRLTCAASGSTFYSYTMGWYRQAPGKERELVAVISSSGGRTYYADSVKGRFTISRDNAKNTVYFQMNSLKPEDTAVYYCAASQRGYFDYRLWSFRSDSWGQGTQVTVSS | high polyreactivity
QVQLVESGGGLVQAGGSLRLTCAASGSTSGQNAMGRYRQAPGNERELVAAISSSAGSTYADSVKGRFTISRDNAKNTVYLQMNSLKPEDTAVYYCNVPYYYTRGSYGYWGQGTQVTVSS | low polyreactivity
QVQLVESGGGLVQAGGSLRLTCAASGSTYYSYAMGWYRQATGKERELVAAITSRGDRTYYADSVQGRFTISRDNAKNTVYLQMNSLKPEDTAVYYCAAEQSWQGYAYYYCGQGTQVTVSS | high polyreactivity
QVQLVESGGGLVQAGGSLRLTCAASGYIFSTYAMGSYRQAPGKERELVASISENGGSTYYADSVKGRFTISRDNAKNTVYLQMNSLKPEDTAVDYCNADAYVDVDDGDYWGEGTQVTVSS | low polyreactivity
